# T1: mouse fibrinogen (mouse, UniProt E9PV24 20-557; Q8K0E8 20-481; Q8VCM7 26-436, limits assumed)
# T1 construct: Bought protein; also called fibrinogen from mouse (Sigma)
# T1 sequence (looked up) 1: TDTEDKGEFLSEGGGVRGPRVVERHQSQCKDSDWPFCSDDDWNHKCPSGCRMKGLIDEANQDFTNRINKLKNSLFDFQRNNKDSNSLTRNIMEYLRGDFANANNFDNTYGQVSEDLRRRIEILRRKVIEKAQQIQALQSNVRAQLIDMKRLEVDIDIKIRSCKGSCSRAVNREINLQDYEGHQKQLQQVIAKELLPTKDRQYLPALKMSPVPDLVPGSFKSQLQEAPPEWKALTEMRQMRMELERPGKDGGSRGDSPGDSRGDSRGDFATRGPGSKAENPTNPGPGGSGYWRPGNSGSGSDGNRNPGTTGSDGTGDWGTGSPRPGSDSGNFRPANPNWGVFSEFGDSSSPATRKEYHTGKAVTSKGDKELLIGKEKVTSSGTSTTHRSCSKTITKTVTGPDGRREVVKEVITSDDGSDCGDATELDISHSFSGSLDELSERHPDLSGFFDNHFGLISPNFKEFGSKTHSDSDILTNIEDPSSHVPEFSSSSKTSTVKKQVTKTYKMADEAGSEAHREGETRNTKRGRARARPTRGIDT
# T1 sequence (looked up) 2: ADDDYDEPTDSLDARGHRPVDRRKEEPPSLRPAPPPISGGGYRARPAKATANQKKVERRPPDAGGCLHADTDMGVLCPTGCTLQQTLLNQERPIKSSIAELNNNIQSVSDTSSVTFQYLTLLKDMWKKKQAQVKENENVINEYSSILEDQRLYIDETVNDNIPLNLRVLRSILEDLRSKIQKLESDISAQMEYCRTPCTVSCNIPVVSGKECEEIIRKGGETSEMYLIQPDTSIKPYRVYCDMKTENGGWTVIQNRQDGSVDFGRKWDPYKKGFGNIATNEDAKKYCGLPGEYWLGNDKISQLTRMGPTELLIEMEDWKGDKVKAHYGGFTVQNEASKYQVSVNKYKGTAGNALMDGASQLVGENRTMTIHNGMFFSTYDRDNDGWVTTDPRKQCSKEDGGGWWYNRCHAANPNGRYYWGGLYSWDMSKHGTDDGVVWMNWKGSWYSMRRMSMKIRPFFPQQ
# T1 sequence (looked up) 3: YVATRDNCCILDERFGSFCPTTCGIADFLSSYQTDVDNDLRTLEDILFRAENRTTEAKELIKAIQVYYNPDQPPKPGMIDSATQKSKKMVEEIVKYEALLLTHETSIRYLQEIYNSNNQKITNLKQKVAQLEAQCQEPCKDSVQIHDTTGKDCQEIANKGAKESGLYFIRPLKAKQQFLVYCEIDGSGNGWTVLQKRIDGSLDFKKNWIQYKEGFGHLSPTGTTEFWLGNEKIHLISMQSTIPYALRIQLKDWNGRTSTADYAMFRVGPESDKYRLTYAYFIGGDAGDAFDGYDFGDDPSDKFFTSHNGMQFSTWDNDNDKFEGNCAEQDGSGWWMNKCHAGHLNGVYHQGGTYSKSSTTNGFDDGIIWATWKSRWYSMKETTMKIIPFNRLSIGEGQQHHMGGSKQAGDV
# T2: mouse fibrin (mouse fibrinogen coated on the plate and treated with thrombin) (mouse, UniProt E9PV24 37-557; Q8K0E8 35-481; Q8VCM7 26-436)
# T2 construct: Made on the plate from mouse fibrinogen (Sigma) with thrombin
# T2 sequence (looked up) 1: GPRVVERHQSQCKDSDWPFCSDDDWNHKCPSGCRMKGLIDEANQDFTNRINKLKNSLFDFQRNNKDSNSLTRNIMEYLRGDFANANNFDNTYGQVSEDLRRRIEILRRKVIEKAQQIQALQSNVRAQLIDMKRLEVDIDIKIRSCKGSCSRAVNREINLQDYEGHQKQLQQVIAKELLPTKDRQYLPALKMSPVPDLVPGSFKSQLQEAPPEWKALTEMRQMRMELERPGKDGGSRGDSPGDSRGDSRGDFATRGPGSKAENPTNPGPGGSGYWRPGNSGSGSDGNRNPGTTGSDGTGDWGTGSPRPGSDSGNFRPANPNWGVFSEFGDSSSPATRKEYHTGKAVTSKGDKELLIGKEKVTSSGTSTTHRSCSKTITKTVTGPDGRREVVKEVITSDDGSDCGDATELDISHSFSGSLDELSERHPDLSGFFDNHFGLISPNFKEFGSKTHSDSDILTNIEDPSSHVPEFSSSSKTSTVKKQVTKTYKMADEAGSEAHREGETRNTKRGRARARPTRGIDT
# T2 sequence (looked up) 2: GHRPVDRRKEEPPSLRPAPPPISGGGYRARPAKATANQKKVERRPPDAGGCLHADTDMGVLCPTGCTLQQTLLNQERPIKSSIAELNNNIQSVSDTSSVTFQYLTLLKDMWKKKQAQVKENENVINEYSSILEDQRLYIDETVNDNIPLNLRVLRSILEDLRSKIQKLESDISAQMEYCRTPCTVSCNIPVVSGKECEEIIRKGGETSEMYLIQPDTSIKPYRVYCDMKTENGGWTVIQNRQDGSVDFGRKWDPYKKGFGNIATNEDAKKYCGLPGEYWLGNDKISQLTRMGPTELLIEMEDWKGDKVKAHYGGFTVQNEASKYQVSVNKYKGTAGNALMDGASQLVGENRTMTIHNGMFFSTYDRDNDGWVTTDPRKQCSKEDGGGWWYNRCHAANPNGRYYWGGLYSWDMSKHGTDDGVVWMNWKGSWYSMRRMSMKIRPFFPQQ
# T2 sequence (looked up) 3: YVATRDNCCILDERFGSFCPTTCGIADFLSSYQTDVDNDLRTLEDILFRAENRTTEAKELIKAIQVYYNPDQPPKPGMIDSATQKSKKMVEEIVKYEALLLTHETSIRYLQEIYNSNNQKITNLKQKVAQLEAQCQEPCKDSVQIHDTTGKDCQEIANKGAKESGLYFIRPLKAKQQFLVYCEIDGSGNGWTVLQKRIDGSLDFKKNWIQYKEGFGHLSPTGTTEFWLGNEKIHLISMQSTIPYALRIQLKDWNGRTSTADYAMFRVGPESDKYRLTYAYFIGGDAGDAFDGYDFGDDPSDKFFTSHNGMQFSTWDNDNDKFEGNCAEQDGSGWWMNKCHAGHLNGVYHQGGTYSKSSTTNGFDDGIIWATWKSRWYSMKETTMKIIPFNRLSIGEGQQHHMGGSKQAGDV
# B1: recombinant reteplase-(3D5 VL-218-VH scFv α fibrin) protein (other)
# chain: SYQGNSDCYFGNGSAYRGTHSLTESGASCLPWNSMILIGKVYTAQNPSAQALGLGKHNYCRNPDGDAKPWCHVLKNRRLTWEYCDVPSCSTCGLRQYSQPQFRIKGGLFADIASHPWQAAIFAKHRRSPGERFLCGGILISSCWILSAAHCFQERFPPHHLTVILGRTYRVVPGEEEQKFEVEKYIVHKEFDDDTYDNDIALLQLKSDSSRCAQESSVVRTVCLPPADLQLPDWTECELSGYGKHEALSPFYSERLKEAHVRLYPSSRCTSQHLLNRTVTDNMLCAGDTRSGGPQANLHDACQGDSGGPLVCLNDGRMTLVGIISWGLGCGQKDVPGVYTKVTNYLDWIRDNMRPASGGGGSGGGGSGGGGSDIQMTQSPSSLSASVGDRVTITCRASQDVSNNVAWYQQKPGKAPKLLIFWSPWLYSGVPSRFSGSGSGTDFTLTISSLQPEDFATYYCQQGWDSPVTFGQGTKVEIKRGSTSGSGKPGSGEGSTKGEVQLVESGGGLVQPGGSLRLSCAASGFTISDFGIHWVRQAPGKGLEWVASIWPSGGYTYYADSVKGRFTISADTSKNTAYLQMNSLRAEDTAVYYCARSWFYSWYDYWGQGTLVTVSS
# notes: Fusion: reteplase, flexible linker, 3D5 VL, 218 linker, 3D5 VH; also called reteplase-(3D5 scFv); reteplase-(3D5-scFv)
# Legend:
# mouse fibrinogen = molecular target: T1, mouse fibrinogen; test: ELISA on coated plate, HRP-protein L detection
# [1] = molecular target: T2, mouse fibrin (mouse fibrinogen coated …); test: ELISA at 200 nM on mouse fibrin plate, HRP-protein L
# Method: The procedures for ELISA analysis were similar to the procedures described in the previous Examples. Briefly, fibrinogen from mouse (Sigma) diluted with PBS was added to a 96-well polystyrene microplate at 100 μL/well, and then the plate was sealed and allowed to stand at 4° C., overnight.
# Each fibrin plate was prepared as follows. 100 μL of TBS containing a final concentration of 1.0 U/mL thrombin (Sigma), 2 mM CaCl₂ and 7 mM L-cysteine (Merck) was added to the wells of the fibrinogen plate, which was then washed with TBS and blocked with the buffer (5% non-fat dry milk/PBS). Thereafter, 100 μL of reteplase-(3D5-scFv) at various final concentrations (600 nM, 200 nM, 66 nM, 22 nM, 7.4 nM, 2.5 nM, and 0.8 nM) were added to each well and incubate at room temperature for 1 hour. The plate was than washed for three times, and HRP-conjugated protein L diluted to 1/5000 was added to the wells and incubated for 1 hour at room temperature. The wells were washed three times and added with 100 μL of TMB substrate buffer. 5 minutes later, the color development was stopped with 1 M HCl. The optical density (OD) was measured at 450 nm using a microplate reader.
binder,measurement,setting,value
B1,binding result,mouse fibrinogen,no binding (tested: 200 nM)
same,binding result,[1],binds
